Source: the DeepSol protein solubility set

Assay: soluble on expression in E. coli; label from the status in PepcDB or PDB records

Q: With “GSHMDHLPMPKFGPLAGLRVVFSGIEIAGPFAGQMFAEWGAEVIWIENVAWADTIRVQPNYPQLSRRNLHALSLNIFKDEGREAFLKLMETTDIFIEASKGPAFARRGITDEVLWQHNPKLVIAHLSGFGQYGTEEYTNLPAYNTIAQAFSGYLIQNGDVDQPMPAFPYTADYFSGLTATTAALAALHKVRETGKGESIDIAMYEVMLRMGQYFMMDYFNGGEMCPRMSKGKDPYYAGCGLYKCADGYIVMELVGITQIEECFKDIGLAHLLGTPEIPEGTQLIHRIECPYGPLVEEKLDAWLATHTIAEVKERFAELNIACAKVLTVPELESNPQYVARESITQWQTMDGRTCKGPNIMPKFKNNPGQIWRGMPSHGMDTAAILKNIGYSENDIQELVSKGLAKVED” as the sequence, how does the “soluble on expression in E. coli” value read?
A: Its value is “soluble”.

Q: With “GSHMLEMSGPRAGFYRQELNKTVWEVPQRLQGLRPVGSGAYGSVCSAYDARLRQKVAVKKLSRPFQSLIHARRTYRELRLLKHLKHENVIGLLDVFTPATSIEDFSEVYLVTTLMGADLNNIVKCQALSDEHVQFLVYQLLRGLKYIHSAGIIHRDLKPSNVAVNEDSELRILDFGLARQADEEMTGYVATRWYRAPEIMLNWMHYNQTVDIWSVGCIMAELLQGKALFPGSDYIDQLKRIMEVVGTPSPEVLAKISSEHARTYIQSLPPMPQKDLSSIFRGANPLAIDLLGRMLVLDSDQRVSAAEALAHAYFSQYHDPEDEPEAEPYDESVEAKERTLEEWKELTYQEVLSFKPPEPPKPPGSLEIEQ” as the sequence, how does the “soluble on expression in E. coli” value read?
A: The value was “soluble”.

Q: Which “soluble on expression in E. coli” value does the source give for “GSHMTMSRRNTDAITIHSILDWIEDNLESPLSLEKVSERSGYSKWHLQRMFKKETGHSLGQYIRSRKMTEIAQKLKESNEPILYLAERYGFESQQTLTRTFKNYFDVPPHKYRMTNMQGESRFLHPLNHYNS” here?
A: The value was “soluble”.

Q: Which “soluble on expression in E. coli” value does the source give for “GSHMTNWLRVYYYEDTISTIKDIAVEEDLSSTPLLKDLLELTRREFQREDIALNYRDAEGDLVRLLSDEDVALMVRQARGLPSQKRLFPWKLHITQKDNYRVYNTMP” here?
A: The value was “soluble”.

Q: With “GSHMTPPHNYLAVIKVVGIGGGGVNAVNRMIEQGLKGVEFIAINTDAQALLMSDADVKLDVGRDSTRGLGAGADPEVGRKAAEDAKDEIEELLRGADMVFVTAGEGGGTGTGGAPVVASIARKLGALTVGVVTRPFSFEGKRRSNQAENGIAALRESCDTLIVIPNDRLLQMGDAAVSLMDAFRSADEVLLNGVQGITDLITTPGLINVDFADVKGIMSGAGTALMGIGSARGEGRSLKAAEIAINSPLLEASMEGAQGVLMSIAGGSDLGLFEINEAASLVQDAAHPDANIIFGTVIDDSLGDEVRVTVIAAGFDVSGPGRKPVMGETGGAHRIESAKAGKLTSTLFEPVDAVSVPLHTNGATLSIGGDDDDVDVPPFMRR” as the sequence, how does the “soluble on expression in E. coli” value read?
A: Its value is “soluble”.

Q: Which “soluble on expression in E. coli” value does the source give for “GSKCKCSRKGPKIRYSDVKKLEMKPKYPHCEEKMVIITTKSVSRYRGQEHCLHPKLQSTKRFIKWYNAWNEKRRVYEE” here?
A: Its value is “soluble”.

Q: With “GSMEPAMEPETLEARINRATNPLNKELDWASINGFCEQLNEDFEGPPLATRLLAHKIQSPQEWEAIQALTVLETCMKSCGKRFHDEVGKFRFLNELIKVVSPKYLGSRTSEKVKNKILELLYSWTVGLPEEVKIAEAYQMLKKQGIVKS” as the sequence, how does the “soluble on expression in E. coli” value read?
A: The value was “soluble”.

Q: For “GSMGDTKEQRILRYVQQNAKPGDPQSVLEAIDTYCTQKEWAMNVGDAKGQIMDAVIREYSPSLVLELGAYCGYSAVRMARLLQPGARLLTMEMNPDYAAITQQMLNFAGLQDKVTILNGASQDLIPQLKKKYDVDTLDMVFLDHWKDRYLPDTLLLEKCGLLRKGTVLLADNVIVPGTPDFLAYVRGSSSFECTHYSSYLEYMKVVDGLEKAIYQGPSSPDKS”, which “soluble on expression in E. coli” value is on record?
A: The value was “soluble”.

Q: With “GSMPHIKGHEGDPCLRSSDCIDGFCCARHFWTKICKPVLHQGEVCTKQRKKGSHGLEIFQRCDCAKGLSCKVWKDATYSSKARLHVCQKI” as the sequence, how does the “soluble on expression in E. coli” value read?
A: Its value is “soluble”.

Q: Which “soluble on expression in E. coli” value does the source give for “GSQEEDLPRPSISAEPGTVIPLGSHVTFVCRGPVGVQTFRLERESRSTYNDTEDVSQASPSESEARFRIDSVSEGNAGPYRCIYYKPPKWSEQSDYLELLVKEAAA” here?
A: Its value is “soluble”.

Q: For “GSQGHDTVQPNFQQDKFLGRWYSAGLASNSSWFREKKAVLYMAKTVVAPSTEGGLNLTSTFLRKNQCETKIMVLQPAGAPGHYTYSSPHSGSIHSVSVVEANYDEYALLFSRGTKGPGQDFRMATLYSRTQTLKDELKEKFTTFSKAQGLTEEDIVFLPQPDKCIQE”, which “soluble on expression in E. coli” value is on record?
A: Its value is “soluble”.

Q: For “GSSIFDIYVVTADYLPLGAEQDAITLREGQYVEVLDAAHPLRWLVRTKPTKSSPSRQGWVSPAYLDRRLKL”, which “soluble on expression in E. coli” value is on record?
A: Its value is “soluble”.

Q: Which “soluble on expression in E. coli” value does the source give for “GSTIAPEEHYTPEEASSREETAWDTAAEEVELLAADGAVHNQELFLECTTSPLIFASAMLNFGVHQILDTLCELAPQPHGRESDERAVEAATGAFDSSREVTDEFSGVVFKVQAGMDKNHRDSLAFMRVVSGEFDRGMQVTHAQSGRSFSTKYALTVFGRTRSTVESAFPGDIVGLVNAGSLAPGDTIFAGRKVQYPPMPQFAPEHFRTLRAKSLGKYKQFRKALDQLAAEGVVQILKNDARGDAAPVMAAVGPMQFEVMMARMQNEYNVETVADPIPYSVARRTTPETATELAKQRGVEIFTRTDGELVALFGDKWKLAFIEKEHPEFELLPMVAD” here?
A: Its value is “not soluble”.

Q: With “GTLDTTWKEATLPQVKAMLEKDTGKVSGDTVTYSGKTVHVVAAAVLPGFPFPSFEVHDKKNPTLEIPAGATVDVTFINTNKGFGHSFDITKKGPPYAVMPVIDPIVAGTGFSPVPKDGKFGYTNFTWHPTAGTYYYVCQIPGHAATGQFGKIVVK” as the sequence, how does the “soluble on expression in E. coli” value read?
A: The value was “soluble”.

Q: For “GVGRLDDLKRSPLFQNVPEDAMREALKVVTERNFQPDELVVEQDAEGEALHLVTTGVVRVSRVSLGGRERVLGDIYAPGVVGETAVLAHQERSASVRALTPVRTLMLHREHFELILRRHPRVLWNLAEMLARRVTFLNDELIAFGQNTEAALTHVFANLYRQRLAAGVPQPEVLPLGTQDIMARTSSSRETVSRVLKRLEAHNILEVSPRSVTLLDLAALEALSFEGAETD”, which “soluble on expression in E. coli” value is on record?
A: Its value is “soluble”.

Q: With “GVSFFLVKEKMKGKNKLVPRLLGITKECVMRVDEKTKEVIQEWSLTNIKRWAASPKSFTLDFGDYQDGYYSVQTTEGEQIAQLIAGYIDIIL” as the sequence, how does the “soluble on expression in E. coli” value read?
A: Its value is “soluble”.

Q: With “GYDHKAIGITAKGAWEAVKRHFRESFNHDIQTTPFTCIGVGDMSGDVFGNGMLLSKQTKLIAAFDHRDIFIDPDPNIAESYTERMRLFQLPRSSWQDYDQTKLSKGGGIFSRTEKTITLSPEAAKAIGFAKQTGTPFEIISALLKAPVDLLWFGGIGTYIRATTETDAQVGDRANDALRITGEQVRAKVIGEGANLGVTQRGRIEYVLNGGRCNTDAIDNSAGVNCSDVEVNIKIVLASALRAKTLTRETRNELLKKMTPQVEQLVLRNNYLQTLALSLAESQSAADL” as the sequence, how does the “soluble on expression in E. coli” value read?
A: The value was “not soluble”.

Q: For “GYMDLMPFINKAGCECLNESDEHGFDNCLRKDTTFLESDCDEQLLITVAFNQPVKLYSMKFQGPDNGQGPKYVKIFINLPRSMDFEEAERSEPTQALELTEDDIKEDGIVPLRYVKFQNVNSVTIFVQSNQGEEETTRISYFTFIGTPVQATNMNDFK”, which “soluble on expression in E. coli” value is on record?
A: Its value is “soluble”.

Q: With “GYSNAGLVNNLAGKLIANYWLDKVYSKEEGYAHRNGDVHIHDLDCLTGYCAGWSLRSLLNEGFNGVRGRVESRAPKHLREALGQMANFLGILQSEWAGAQAFSSFDTYLAPYVFRDQLEFKEIKKAIKSFVYNLNVPARWGQSPFTNVTIDWTVPADLKDQIPTRNDRHLFEDIQEDALLVQEAQKRGASSLLSMTYKYFQAEMNLINRAFYEVMTEGDKTGQPFTFPIPTVNITEDFDWHGENTDLLFENTAKIGSSYFQNFIGSQYIRNEKGELVENPEAYKPNAVRSMCCRLQLDLRELLKRGGGLFGSAEMTGSIGVVTLNMARLGYRFRGDREGLMAELTKLMDLSKSTLEKKRQAVTELFHRGLYPYTKRYLPGFNNHFSTIGVNGINEMIRNFTNDQDNISSPSGMAFATEILEFMRERIRSYQEETGNLYNLEATPAEGTTYRFAKEDKKRYPQIIQAGMEENVYYTNSSQLPANFTDDPFEALTLQDELQCKYTGGTVLHLYMREKISSAEACRKLVKTVITSYKLPYITITPVFSVCPKHGYLRGEHEYCPLCDEEALLEIEQSQCC” as the sequence, how does the “soluble on expression in E. coli” value read?
A: The value was “not soluble”.

Q: With “HEHNTIPKGASIEVKVQQLDPVNGNKDVGTVTITESNYGLVFTPDLQGLSEGLHGFHIHENPSCEPKEEEGELTAGLGAGGHWDPKGAKQHGYPWQDDAHLGDLPALTVLHDGTATNPVLAPRLKHLDDVRGHSIMIHTGGDNHSDHPAPLGGGGPRMACGVIK” as the sequence, how does the “soluble on expression in E. coli” value read?
A: The value was “soluble”.
